Ends that are not written are not given here.

The values that follow come from patent US20100055104A1 (NEUTEC PHARMA, published 2010).

One experiment concerns the target T1, recombinant human hsp90α (human, UniProt P07900 1-732, limits assumed).
T1 construct: also called human hsp90a; human hsp 90 alpha
Nature of the experiment: Biacore SPR; human hsp90α amine-coupled to CM-5 chip, Mycograb injected; 1:1 Langmuir fit.

Experiment [1] has as its target T2, biotinylated LKVIRK peptide (SEQ ID NO: 4) (also: biotinylated, site not given here).
T2 construct: Captured non-covalently on a Sensor Chip SA; Any spacer between the biotin and the peptide is not described; also called immobilised peptide
T2 peptide: LKVIRK
Nature of the experiment: Biacore SPR; biotinylated peptide captured on SA chip, Mycograb injected; 1:1 Langmuir fit. (In general: Surface plasmon resonance follows binding to a sensor surface in real time, without labels.)

In experiment [2] the target is T3, recombinant hsp90 from Candida albicans (Candida albicans, UniProt P46598 1-707).
T3 construct: also called Candida hsp90; Candida albicans hsp90
Nature of the experiment: Biacore SPR; Candida hsp90 amine-coupled to CM-5 chip, Mycograb injected; 1:1 Langmuir fit.

T3 sequence (P46598 whole entry): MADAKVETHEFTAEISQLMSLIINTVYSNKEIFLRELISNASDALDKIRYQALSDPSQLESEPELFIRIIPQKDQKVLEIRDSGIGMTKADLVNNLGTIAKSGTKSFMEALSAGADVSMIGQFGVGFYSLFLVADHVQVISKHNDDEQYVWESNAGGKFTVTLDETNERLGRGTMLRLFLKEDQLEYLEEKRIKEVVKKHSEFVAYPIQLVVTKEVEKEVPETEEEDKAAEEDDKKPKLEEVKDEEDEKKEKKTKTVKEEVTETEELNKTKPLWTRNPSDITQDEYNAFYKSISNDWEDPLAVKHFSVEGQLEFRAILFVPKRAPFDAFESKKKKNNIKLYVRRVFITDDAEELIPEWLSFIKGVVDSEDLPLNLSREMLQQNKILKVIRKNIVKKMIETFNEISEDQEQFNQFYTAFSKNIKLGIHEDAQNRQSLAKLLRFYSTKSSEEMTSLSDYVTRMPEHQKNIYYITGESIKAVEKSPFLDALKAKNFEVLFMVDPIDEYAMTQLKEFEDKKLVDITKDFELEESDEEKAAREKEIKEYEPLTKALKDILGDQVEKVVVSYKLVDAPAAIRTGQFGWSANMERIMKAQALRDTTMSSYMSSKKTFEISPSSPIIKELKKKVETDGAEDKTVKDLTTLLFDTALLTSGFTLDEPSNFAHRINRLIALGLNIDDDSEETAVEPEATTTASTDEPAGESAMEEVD

B1: Mycograb® (antibody component, SEQ ID NO: 1) (antibody)
chain: HMAEVQLVESGAEVKKPGESLRISCKGSGCIISSYWISWVRQMPGKGLEWMGKIDPGDSYINYSPSFQGHVTISADKSINTAYLQWNSLKASDTAMYYCARGGRDFGDSFDYWGQGTLVTVSSGGGGSGGGGSGGGGSDVVMTQSPSFLSAFVGDRITITCRASSGISRYLAWYQQAPGKAPKLLIYAASTLQTGVPSRFSGSGSGTEFTLTINSLQPEDFATYYCQHLNSYPLTFGGGTKVDIKRAA
notes: Formulated as described in WO-A-01/76627; also called Mycogab; Mycograbg
A word on the Kd: it is a measure of binding affinity in units of concentration. Broadly, the koff is a measure of how fast the partners let go of each other. Usually kon stands for a measure of how fast the partners come together. As for B1, in the experiment with recombinant human hsp90α, the dissociation constant Kd came to 3270 nM, the off-rate constant (koff) was determined as 0.00321 s⁻¹ and the on-rate (kon) worked out at 981 M⁻¹ s⁻¹. Further, in experiment [1], the dissociation constant (Kd) came out at 28.6 nM, the dissociation rate constant (koff) worked out at 0.000647 s⁻¹ and the on-rate (kon) was determined as 22600 M⁻¹ s⁻¹. Further, in experiment [2], the dissociation constant (Kd) stood at 717 nM, the koff is 0.000267 s⁻¹ and the kon was 373 M⁻¹ s⁻¹.
